In US12344890B2, “Process for cognate nucleotide detection in a nucleic acid sequencing workflow” (priority 2017, dated 2025) one finds Km data, which are given here for two molecules.

The target in series [1] is T1, Therminator™ DNA polymerase (Thermococcus sp., UniProt Q56366, A485L/D141A/E143A).
T1 construct: purchased New England BioLabs
It counts as biochemical, Thermococcus species 9° N. The conditions noted are these: incorporation assay, averaged from three trials. An excerpt: Each nucleotide included a fluorescent moiety constructed on a Cy-5 scaffold. […] In the case of the labeled dUTP analog, the comparison was against dTTP.

Series [2] has as its system Nc1ccn([C@H]2C[C@H](O)[C@@H](COP(=O)(O)OP(=O)(O)OP(=O)(O)O)O2)c(=O)n1. Kind of series: purified protein, by the assay type. The settings on record: other: incorporation assay, Therminator DNA polymerase; averaged from three trials.
In series [3] the test system is Nc1nc2c(ncn2[C@H]2C[C@H](O)[C@@H](COP(=O)(O)OP(=O)(O)OP(=O)(O)O)O2)c(=O)[nH]1. Kind of series: purified protein, by the assay type. The settings on record: other: incorporation assay, Therminator DNA polymerase; averaged from three trials.
The subject of series [4] is Nc1ncnc2c1ncn2[C@H]1C[C@H](O)[C@@H](COP(=O)(O)OP(=O)(O)OP(=O)(O)O)O1. The series can be described thus: purified protein, by the assay type. The settings on record: other: incorporation assay, Therminator DNA polymerase; averaged from three trials.

T1 sequence (Q56366 whole entry D141A/E143A/A485L): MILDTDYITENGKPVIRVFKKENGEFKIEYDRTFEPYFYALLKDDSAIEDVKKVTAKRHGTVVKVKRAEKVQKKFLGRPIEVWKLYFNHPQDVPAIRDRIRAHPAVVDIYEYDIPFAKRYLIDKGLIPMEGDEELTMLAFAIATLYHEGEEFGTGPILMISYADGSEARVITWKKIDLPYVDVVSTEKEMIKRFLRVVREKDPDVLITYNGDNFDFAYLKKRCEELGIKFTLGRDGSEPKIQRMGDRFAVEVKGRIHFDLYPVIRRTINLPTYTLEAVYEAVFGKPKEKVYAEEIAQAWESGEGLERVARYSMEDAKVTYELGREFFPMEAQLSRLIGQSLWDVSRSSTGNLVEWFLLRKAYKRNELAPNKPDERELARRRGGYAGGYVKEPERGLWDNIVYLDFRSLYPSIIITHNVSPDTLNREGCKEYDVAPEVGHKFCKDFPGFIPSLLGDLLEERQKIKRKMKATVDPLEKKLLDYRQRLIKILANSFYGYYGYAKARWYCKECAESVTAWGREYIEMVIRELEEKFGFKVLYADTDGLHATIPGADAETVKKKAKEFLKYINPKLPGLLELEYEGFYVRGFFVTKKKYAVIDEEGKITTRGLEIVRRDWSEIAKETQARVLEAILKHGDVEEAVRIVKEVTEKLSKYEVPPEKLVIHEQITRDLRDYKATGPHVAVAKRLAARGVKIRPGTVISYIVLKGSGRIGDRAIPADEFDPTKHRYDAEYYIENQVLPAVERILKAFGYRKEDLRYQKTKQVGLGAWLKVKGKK

A word on the Km: it is the concentration of substrate that gives half-maximal velocity. For `Cc1cn([C@H]2C[C@H](O)[C@@H](COP(=O)(O)OP(=O)(O)OP(=O)(O)O)O2)c(=O)[nH]c1=O` [dTTP, 2′-deoxythymidine-5′-triphosphate], the Michaelis constant (Km) in series [1] was found to be 0.92 µM.
Regarding “Therminator™ DNA polymerase (Thermococcus sp. 9oN-7; A485L/D141A/E143A)”, the values for the Km in series [2], in series [3] and in series [4] were 0.82 µM, 0.23 µM and 0.05 µM, respectively.
